Data reported in PMC11067984.

Target: CaV1.2 truncated at aa 1820, fused to YFP (CaV1.2^Δ1820-YFP) (UniProt P15381)

Distal C-terminal domain of CaV1.2 fused to Renilla luciferase (DCtermD-RLuc) (domain or fragment)
CDI fraction of CaV1.2^Δ1820 at 0 mV, without versus with DCtermD overexpressed: 0.03
